Data on 20 sequences can be found in the DeepSol protein solubility set.

This data set can be described thus: soluble on expression in E. coli; label from the status in PepcDB or PDB records.
For the sequence “MGAAAAPEVNMELVGHFGGTTDAVDVAGNYAYVGQGQDFLILDITNPSSPVLVSKIMTEGFVRDIKVSRNYAYVADDDNGLVIVDISNPSSPTLKGSYNIPGYTYCITVSGNYAYVADNDGLVIVDISNPSDPILKGRYAGPTGDVAVYGNYAYVADWGNGLMIVDISNPSSPVLKGSYDTAGDIYGVSISGNYAYVADGDTGLVIVDISNPSSPTLKGNYNTAGIACDVSVLGNYAYVADNDNGLVIVDISDPSSPVLKGNGSTTGYAHGIEVSGNYAYVANSNTGLVIVDISNPSSPTLKGSCDTIVRAKSIAVSGNYAYIADWDNGLVIVDISNPSSPFLKGSCDTPRSAQGVAVSGNYAYVADDDGLVIVDISNPSFPILNKSYNTGGWAQGITVSGNYAYVIDMANGIFIVDISNPSSPILEGMYDTSPIIIENYDYTGSIWSVSVSGNYAYVADEGNGLLIVDISNPSSPILKGSYDTAGLAYDVAVSGNYAYVADSKNGLAIIDISNPSSPILVGNYNTSGYAECVSISGNYAYVAVDDSLVVVDISNPSSPILKGLYAGSAGDIAVSGNYVYASEGVNGLVILKANPESAFTVADFSSNITSGYAPLSIQFNDHSQNATSWNWDFGDGYNSTNQNPIHTYSSAGTYTVNLTVINENRTASKVAKIFVLNTSLEHHHHHH”, the “soluble on expression in E. coli” value is reported as “not soluble”.

For the sequence “MGAAKPIFVEHSIVIDRPAQQVYDYWRKLENLPQIMSHLESVTVLDDKRSRWVAKAPLGTHVEWEAEVVNDKPGERIGWHSLPGATVDNAGSVQFESLPDDKTRVHVALSYRPPAGPLGAAVAKLFGEEPSQQIAEDLQKFKATFEGLEHHHHHH”, the “soluble on expression in E. coli” value was “not soluble”.

For the sequence “MGAVNKDVFATGAGQVDPAKVLSPGLVYDATTEDYLKFIQGTGMDLGMEGLGTTQARDMNVPSFALGNLAGKIEVTRTLTALTPGTYRASVNVPGVNVKVTPSVLTFGAPGEKKTFKVQFENNNAALGKFAMGSLNWQGANKTVTSPIAVRPQSVIALEHHHHHH”, the “soluble on expression in E. coli” value was “not soluble”.

Regarding “MGCAVSQESAIATVSSSSNTATTSTSSSNTSQKWATSRTSRPVTNVTQVSAIHTTSMDSGSSTVQLPSPRGSLTTAVSTSSSGAQRQMSANSERSLHTRPLSETAVILQSQAVKMSTGAGDSAVYEAVERGSLYSLDYRVYIKGPQGIVSPWHDIPLFANKDKRVYNMIVEIPRWTNAKMEMATKEPFSPIKQDEKKGVARFVHNIFPHKGYIWNYGALPQTWEDPNHVVPDTGAKGDNDPIDVIEVGSKVAGRGAVLQVKVLGTLALIDEGETDWKLVAIDVNDENADKLNDIDDVEKVYPGLLAASVEWFRNYKIPAGKPANEFAFNGEFKNREYAEKVIDETNEYWKTLIKEANPSLNTVSRVPEAVHQGTDEAAATAIGATPEHGANAPLPGDVDKWHFVQG”, the “soluble on expression in E. coli” value is listed as “not soluble”.

As to “MGDIEGSSSAAQSAQPEETGETNADKTGFFTRIMDAFSSGESQQEPTLGGASAAPVPVPGILNLRRMRVEDVAIPTAEIVSVPLTVSKEELVHVFRDSGMTRIPVYENTLDTPLGFVHLKDFALTHGFNGNSTQFDLRSMLRPLLFVPPSMPIGVLLAKMQTERRHMALVIDEYGGVDGLLTIEDLIEQVVGEIEDEHDTDEAQTWVKERPGCYIAQARTPLDEFETEIGRSLTNHEDVDEEEIDTLGGLVFMLSGRVPARGEVVPHPDGVEFEVIDADPRRIKRLRVMIPDAAE”, the “soluble on expression in E. coli” value is listed as “not soluble”.

Regarding “MGDRGYGGSRSYGGSSGGGSRGGYGGGGRGGGGGGYSGGRGGGYGGGGGGGYGGGGYGGGGRGGGRGGSNGSAGGRLRDVDWSAENLTPIEKDFYHENAAVSRREQYEIDQWVSANQVTLEGRGVPRPVFEFNEAPLPGQIHELLYGKFQKPTVIQSISWPIAMSGRDIISIAKTGSGKTLAFMLPALVHITKQAHRQRGEGPAVLVLLPTRELAQQVQEVSIDFCHSLGLKMTCLFGGASKGPQARDLERGVDIVVATPGRLLDFLDNGTTNMKKCSYLVLDEADRMLDMGFEPQIKKIIGQIRPDRQTLMFSATWPKEVRALASDFQKDAAFLNVGSLELAANHNITQVVDILEEHAKQAKLMELLNHIMNQKECKTIIFVETKRKADELTRAMRRDGWPTLCIHGDKNQGERDWVLQEFKAGKTPIMLATDVAARGLDVDDIKFVINYDYPNNSEDYVHRIGRTGRSDKKGTAYTFFTHTNASKAKDLLKVLDEAKQTVPQALRDMANRSYGGSNSRGRYGGGGFQKRGYGGNDNFAPKRPRYDNGGYGGGSGGGGRW”, the “soluble on expression in E. coli” value was “not soluble”.

On to “MGEDTRVSYQDIKARVLAAIRDNTWPPGAMLPGEVALAQEYGCARATVNRAMRELAEEGILERKRKAGTRVKLAPARQARFSIPVVREEIEALGASYRYALVSRSEEATPKWLAAQLGLGAGDRVLHLVCMHYADERPFQLEQRWINLATVPQAAKKDFSQTGPNEWLVSEVPFTDIRLSFSACRGNRETAEFLGGNETDAHFTVERVTWLGERPVTYARLLFHAGYRMTTTL”, for which the “soluble on expression in E. coli” value is recorded as “not soluble”.

As for “MGEETRRQERRIDAEKRAVSSLLFRIIRSHSTPVANSTASDEATAAAAAGQQNFASRKRRETKKREKSSSSCVSHCFLVMGHGKAFVF”, the “soluble on expression in E. coli” value was “not soluble”.

Take “MGEKRKTRQAEVNIGMVGHVDHGKTTLTKALTGVWTDTHSEELRRGITIKIGFADAEIRRCSNCGRYSTSPICPYCGHETEFIRRVSFIDSPGHEALMTTMLAGASLMDGAILVIAANEPCPRPQTREHLMALQIIGQKNIIIAQNKIELVDKEKALENYRQIKEFIKGTVAENAPIIPISALHGANIDVLVKAIEEFIPTPKRDSNKPPKMLVLRSFDVNKPGTPPEKLVGGVLDGSIVQGKLKVGDEIEIRPGVPYEEHGRIKYEPITTEIVSLQAGGQFVEEAYPGGLVGIGTKLDPYLTKGDLMAGNVVGKPGKLPPVWTDLRLEVHLLERVVGTEQELNVEPIKRKEVLLLNVGTARTMGLVTALGKDEIELKLQIPVCAEPGERVAISRQIGSRWRLIGYGIIKELEHHHHHH”: the “soluble on expression in E. coli” value is reported as “soluble”.

Turning to “MGEPKDSLALFLCHESESSLNEDDDETIERSDKQEPHFTTTIDDEDYVADLVLKENLRFETLPSKTTSSSDRLIAIDWILTTRTRFGFQHQTAYIAISYFDLFLHKRFIGLQKDETWAMRLLSVACLSLAAKMEERIVPGLSQYPQDHDFVFKPDVIRKTELLILSTLDWKMNLITPFHYFNYFLAKISQDNHSVSKDLVLLRSSDSLLALTKEISFTEYRQFVVAAVTTLLASSSTSSDIRLTREEIANKFGSISWWTSNENENVYLCYQRTLEIEERKHMTPPPEIAVSREPPASGSGAKRRLSFDDSDQSSPPAKRMRRL”, the “soluble on expression in E. coli” value is on record as “soluble”.

With “MGERGVEMRLRIRFESAECEVELYEEWAPETVRAIADALPIKSTANRWGDEIYFTTQVAVEKEENSKDVVELGDVAYWIPGKAICLFFGKTPISDDKIRPASAVNVIGRIVNSMEGLKGVADGESVVVERA”, the “soluble on expression in E. coli” value is recorded as “not soluble”.

“MGETYDLLVIGGGINGVGIARDAAGRGLSVCLCEQDDLAAHTSSASTKLIHGGLRYLEQYEFALVGKALAEREVLLRLAPHIIWPLRFLLPHQPHLRPAWMIRAGLFLYDHLGGSKRSLPRSRRLSLRTHPVGQPLQESLRTGFVYSDAWVQDARLVVLNAMDAAKRGAQIHTRTRCVGAWRDAGFWYAELEGCDGRRRTVQSRALANAAGPWAVSFLDKVAAVPHQHALRLVKGSHIVVPKLFDHDHAYIFQQPDRRIVFAIPYEHDFTLIGTTDVDYEADPSAPKIDAAEVQYLCDAVNLYFQQQITPQDVVWNYSGVRPLLDDAEDNAAEVTRDYQLEVLTDGAPLLNVFGGKLTTYRKLAEEAVDRLTQALGARKPAWTARGEALPGGEQRDIASLLERVRTARPWLPAATAQRLVRNYGTCAEQLLGDAQDMAALGQHFGADLYQAEVDYLCAREWAQTADDILWRRSKLGLRVDAEARARLEAYLQTRPAAHANAQTHVVPALEHHHHHH”: the “soluble on expression in E. coli” value is “not soluble”.

Turning to “MGEVQREKVAVIIGPTAVGKTKLSIDLAKALNGEIISGDSMQIYRTMDIGTAKVTKAEMDGIPHYMIDIKNPEDSFSVAEFQERVRKHIREITERGKLPIIVGGTGLYIQSVLFDYQFTDDAGDVIYREQREKLALERGVEYVHEKLQEVDPESAERIHANNVRRVIRALEIFHTTGEKMSEQIEKQEKELLYDVSLIGLTMDREMLYDRINLRVDLMMEQGLLEEVEGLYNRGIRDCQSIQAIGYKEIYDYFENRASLEDAVSQLKTNSRRYAKRQLTWFRNKMDVTWFDVTDGEKTSEILRYIEGKLQVKSNNSKLEHHHHHH”, the “soluble on expression in E. coli” value is reported as “soluble”.

With “MGFDLFGKIEDILKELPQDKEASVEDFEEERIKNCVPRIHKELREGFSPLEAGVLPYAISLNKGCYVGQEAIARVYFRGRTPRVLTKFEVIEQVKEEEKILEGNKAIGLITSVSPSGKMALGYILRAKFEKGKEYQTESGKVKAKGVCEDGSTLEHHHHHH”, the “soluble on expression in E. coli” value was “not soluble”.

As to “MGFMIEHWDFSTPMATQETTTAEHIQPNHWYHCERLHPDIRSWLEDNHVPRATVDHLLADESRPSFHPLDDDNFMLILRGINMNENASPEDMLSIRILYFQGALISTRKIPSRAIMEIRQALAEHKGPKSLASLLNQIIEGLNGKIDLYLDTIEETLNEFDVNDESTYNHIAAQKALISIKRFIRPQQYAIRDLIESESELVTSRPHQYRFAHNNITRINETIEFYLGEVALFQDEIKHNRDEKTNKNS”, the “soluble on expression in E. coli” value is given as “soluble”.

Consider “MGFNNLVSLAALIEKVFPIRYTPAGIPVLDIILKHESWQEENGQQCLVQLEIPARILGRQAEEWQYRQGVYVHVEGFLAQKSRRSLMPMLRIQNIQEYKG”, for which the “soluble on expression in E. coli” value is given as “not soluble”.

Turning to “MGGSHHHHHHGMASALGADGFVPLGTLLQLPQFRGFSAEDVQRVVDTNRKQRFALQLGDPSTGLLIRANQGHSLQVPKLELMPLETPQALPPMLVHGTFWKHWPSILLKGLSCQGRTHIHLAPGLPGDPGIISGMRSHCEIAVFIDGPLALADGIPFFRSANGVILTPGNTDGFLLPKYFKEALQLRPTRKPLSLAGDEETECQSSPKHSSRERRRIQQ”, the “soluble on expression in E. coli” value is “not soluble”.

With “MGGWMSCAPPIYTPHTNSWTESGWDRTSWWRWSAQRWSGWSFKIVRANKALRVMAKTKMPLVLIPPSPNKPYSKLAINQELHLTPHKKTSPATSSSLKPRPGPRGYLNARLSWRCPTLSRKVRVPTIKVPMVRAPSTKPSKTSSSNNPWPLTPRMRG”, the “soluble on expression in E. coli” value is on record as “soluble”.

On to “MGHERDWSLVQVALTDITARKKAEAYLEYLGKHDVLTKLHNRAFYSDELNRLERSALRPVSAIVIDLNGLKEANDKLGHDAGDALLRRVGEVLNGVVTAPNHAARIGGDEFAILLPGADKQVAAAMVDTVYELLKINNQFYSSAPLSLSLGVATTEAGETMESLVRRADMNMYEQKNALEHHHHHH”, for which the “soluble on expression in E. coli” value is on record as “soluble”.

Take “MGHHHHHHGGHMSLKVLDFPSSKKAKELAVKYGYDEFIVRRWLHFFGDETEDIIRAFEEGIPKYIRINTLKIDEKGLLERLESRGFKLKKTEVPYCFEVVEEPYSIGATPEYLMGYYYVMDKSSCIPPLALEPKPGEVVVDLAASPGGKTTFLSMLMENKGAVIAVEPQKERLQPLIDNINRMGAMNVAVINVDGRRVPAMGIKADRVLLDAPCTGEGIIHKDPSRKTDRGKEDILFCSSLQRELVLAAFDCLKEGGVMVYSTCSLTPEENEFVVDFLLERRKGVVEEIEWGDEALALPGVKNEVSKARRFYPHRHQCSGFFVARIRKVGDSKAKPEEGGS”: the “soluble on expression in E. coli” value was “soluble”.
